This is an account of results in PMC4605309.

Where two headings read alike, the source gives them in different places.

Data set [1] has as its target T1, Smad5 MH1 (Mus musculus, UniProt P97454 1-143). The data set can be described thus: EMSA. A general note: Mobility shift assays separate free from complexed probe on a gel.
The target of data set [2] is T1, Smad5 MH1. The experiment in a line: EMSA. The source holds these as a separate data set.

T1 sequence (P97454 1-143): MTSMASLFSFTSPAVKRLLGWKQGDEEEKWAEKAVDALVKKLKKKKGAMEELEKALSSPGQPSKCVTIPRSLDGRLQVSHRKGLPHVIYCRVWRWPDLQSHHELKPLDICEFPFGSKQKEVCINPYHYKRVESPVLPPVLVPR

B1: Bambi enhancer DNA (dsDNA)
DNA 1: AGTGTCGTCTCGTTGGCGCCGGGTGC
DNA 2: GCACCCGGCGCCAACGAGACGACACT
As to B1, the binding result in the data set with Smad5 MH1 [1] was “binds”.

B2: Smad7 promoter DNA (dsDNA)
DNA 1: CCAGCCAGCCAGCCGGCGCCAC
DNA 2: GTGGCGCCGGCTGGCTGGCTGG
As to B2, in the data set with Smad5 MH1 [1], the binding result is given as “binds”.

B3: Id2 promoter DNA (dsDNA)
DNA 1: CCTGGCGCCAGAGAGTCTGC
DNA 2: GCAGACTCTCTGGCGCCAGG
B3: the binding result in the data set with Smad5 MH1 [2] is given as “binds”.
